Drawing on US20200277369A1 (Novartis, published 2020), this text covers Kd for one molecule.

One may read the Kd as the constant that tells how readily two partners part at equilibrium.

This assay concerns the target T1, human homodimer IL-17A (human, UniProt Q16552 24-155).
T1 construct: Homodimer as printed; also called interleukin-17A
Description: not stated (affinity given in running text of Example 1, no method).

T1 sequence (Q16552 24-155 limits assumed): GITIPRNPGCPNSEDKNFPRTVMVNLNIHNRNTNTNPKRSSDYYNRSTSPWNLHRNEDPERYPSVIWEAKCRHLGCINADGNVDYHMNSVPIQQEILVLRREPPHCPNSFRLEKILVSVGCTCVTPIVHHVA

B1: CJM112 (antibody, V domains shown)
VH: EVQLVESGGDLVQPGGSLRLSCAASGFTFSSYWMSWVRQAPGKGLEWVANIKQDGSEKYYVDSVKGRFTISRDNAKNSLYLQMNSLRAEDTAVYYCARDRGSLYYWGQGTLVTVSS
VL: AIQLTQSPSSLSASVGDRVTITCRPSQGINWELAWYQQKPGKAPKLLIYDASSLEQGVPSRFSGSGSGTDFTLTISSLQPEDFATYYCQQFNSYPLTFGGGTKVEIK
The molecule B1 gave a dissociation constant Kd of 6 pM.
